# According to article PMC11239676 (2024):
# T1: 15N-labelled NHR4 MYND domain of RUNX1T1 (UniProt Q06455 510-559, 15N-labelled)
# T1 chain: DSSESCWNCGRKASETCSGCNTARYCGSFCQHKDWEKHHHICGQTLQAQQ
# How the values were obtained:
# [1] = target: T1, 15N-labelled NHR4 MYND domain of RUNX1T1; assay: NMR; pH 6
# [2] = target: T1, 15N-labelled NHR4 MYND domain of RUNX1T1; assay: NMR; pH 7.5
Binder,Kd [1] [µM],Kd [2] [µM]
Ac-TISNPPPLISSAK-NH2 [NCOR2 peptide (human NCOR2 residues 1101-1113)],370,
Ac-LNQPPPPLIRPAN-NH2 [RCOR3_3 peptide (human RCOR3 residues 448-460)],680,370
Ac-TLNQPPPLLRPTL-NH2 [RCOR3_1 peptide (human RCOR3 residues 410-422)],820,
